According to publication PMC11291249, “Investigating the biosynthesis and roles of the auxin phenylacetic acid during Pseudomonas syringae-Arabidopsis thaliana pathogenesis” (Frontiers in Plant Science, 2024):

Columns and labels:
[1] = system: NC(=O)c1ccc[n+]([C@@H]2O[C@H](COP(=O)(O)OP(=O)(O)OC[C@H]3O[C@@H](n4cnc5c(N)ncnc54)[C@H](O)[C@@H]3O)[C@@H](O)[C@H]2O)c1; test: purified protein; conditions: 1 mM PAAld, 100 mM Tris-HCl pH 8.0, 100 mM KCl, 25 °C, varied: cofactor
O=CCc1ccccc1 = test: purified protein; conditions: 5 mM NAD+, 100 mM Tris-HCl pH 8.0, 100 mM KCl, 25 °C

AldA (Pseudomonas syringae pv. tomato str. DC3000)
Km [1]: 11.2 ± 1.2 µM
kcat [1]: 1.4 ± 0.0183 s⁻¹
kcat/Km [1]: 125000 M⁻¹ s⁻¹
Km (O=CCc1ccccc1): 645 ± 113 µM
kcat (O=CCc1ccccc1): 18.7 ± 1.3 s⁻¹
kcat/Km (O=CCc1ccccc1): 29000 M⁻¹ s⁻¹
